Experimental data: publication PMC7605441

Experiments:
RAD51 [1] = molecular target: RAD51 (UniProt Q08297); assay: co-IP of RAD51AP1-mCherry, RAD51-GFP blotted; conditions: reference: wild type, asynchronous cells; sites T305
RAD51 [2] = molecular target: RAD51 (UniProt Q08297); assay: co-IP of RAD51-GFP, RAD51AP1-mCherry blotted; conditions: reference: wild type, asynchronous cells; sites T305

**Q.** For RAD51AP1 (from UniProt Q8C551) T305A, which other: percent reduction vs wild type (RAD51 [1]) is on record?
**A.** Its other: percent reduction vs wild type is 90%.

**Q.** And the other: percent reduction vs wild type (RAD51 [2])?
**A.** The other: percent reduction vs wild type was 62%.
